Results: US20130005646A1 (Novo Nordisk, published 2013)
Starred links: 1 amine or outer side, 2 acyl side, 3 side chain; linkers in the order of their positions; H or OH if unused. Positions of bridges follow the written chain, without caps; N, C: chain ends. *: point of attachment. C20 diacid = O=C(O)CCCCCCCCCCCCCCCCCCC(=O)*; C18 diacid = O=C(O)CCCCCCCCCCCCCCCCC(=O)*; γGlu = O=C(O)[C@H](CCC(=O)[*:2])N[*:1]

T1: human calcitonin (a) receptor (human, UniProt P30988 25-474)
T1 sequence (looked up): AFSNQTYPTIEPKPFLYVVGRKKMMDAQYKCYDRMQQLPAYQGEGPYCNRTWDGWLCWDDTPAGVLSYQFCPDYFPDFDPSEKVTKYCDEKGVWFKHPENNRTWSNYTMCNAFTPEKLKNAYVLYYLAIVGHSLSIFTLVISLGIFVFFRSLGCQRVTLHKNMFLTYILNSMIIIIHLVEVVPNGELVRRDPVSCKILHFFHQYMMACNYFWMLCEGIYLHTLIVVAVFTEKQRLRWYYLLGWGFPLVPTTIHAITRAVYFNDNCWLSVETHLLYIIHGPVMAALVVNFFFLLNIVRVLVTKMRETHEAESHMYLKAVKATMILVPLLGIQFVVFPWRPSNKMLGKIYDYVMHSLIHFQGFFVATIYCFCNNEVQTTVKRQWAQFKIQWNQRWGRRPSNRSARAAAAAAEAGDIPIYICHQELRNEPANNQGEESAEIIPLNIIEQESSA

T2: human amylin 3(a) receptor (human calcitonin receptor + RAMP-3) (human, UniProt P30988 25-474; O60896 24-148)
T2 sequence (looked up) 1: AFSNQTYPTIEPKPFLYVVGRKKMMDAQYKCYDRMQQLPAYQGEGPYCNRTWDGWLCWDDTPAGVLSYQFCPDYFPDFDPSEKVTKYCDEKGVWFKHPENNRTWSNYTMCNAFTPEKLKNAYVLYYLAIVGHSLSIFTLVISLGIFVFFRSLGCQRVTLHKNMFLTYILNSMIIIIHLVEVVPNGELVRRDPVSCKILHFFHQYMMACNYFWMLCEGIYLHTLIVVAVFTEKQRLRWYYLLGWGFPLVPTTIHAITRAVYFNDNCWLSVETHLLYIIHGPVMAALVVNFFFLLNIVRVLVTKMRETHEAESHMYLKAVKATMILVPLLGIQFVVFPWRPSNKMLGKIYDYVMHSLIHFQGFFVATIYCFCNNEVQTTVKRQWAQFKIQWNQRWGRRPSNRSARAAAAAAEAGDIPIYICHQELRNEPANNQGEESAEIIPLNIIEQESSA
T2 sequence (looked up) 2: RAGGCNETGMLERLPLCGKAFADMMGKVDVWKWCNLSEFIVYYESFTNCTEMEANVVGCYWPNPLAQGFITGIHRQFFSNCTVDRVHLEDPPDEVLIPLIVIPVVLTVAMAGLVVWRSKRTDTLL


What was measured:
[1] = biological target: T1, human calcitonin (a) receptor; assay: cell-based or functional assay
[2] = biological target: T2, human amylin 3(a) receptor (human …); assay: cell-based or functional assay

CTa receptor human EC50 [1] [nM]	Amylin receptor human EC50 [2] [nM]	Binder
0.527	0.151	{C18 diacid-γGlu-γGlu}-CNTATCATQRLAEFLHHSSNNFGPILPPTNVGSNTY-NH2 (disulfide 1-6; SMILES CC[C@H](C)[C@H](NC(=O)[C@@H]1CCCN1C(=O)CNC(=O)[C@H](Cc1ccccc1)NC(=O)[C@H](CC(N)=O)NC(=O)[C@H](CC(N)=O)NC(=O)[C@H](CO)NC(=O)[C@H](CO)NC(=O)[C@H](Cc1c[nH]cn1)NC(=O)[C@H](Cc1c[nH]cn1)NC(=O)[C@H](CC(C)C)NC(=O)[C@H](Cc1ccccc1)NC(=O)[C@H](CCC(=O)O)NC(=O)[C@H](C)NC(=O)[C@H](CC(C)C)NC(=O)[C@H](CCCNC(=N)N)NC(=O)[C@H](CCC(N)=O)NC(=O)[C@@H](NC(=O)[C@H](C)NC(=O)[C@@H]1CSSC[C@H](NC(=O)CC[C@H](NC(=O)CC[C@H](NC(=O)CCCCCCCCCCCCCCCCC(=O)O)C(=O)O)C(=O)O)C(=O)N[C@@H](CC(N)=O)C(=O)N[C@@H]([C@@H](C)O)C(=O)N[C@@H](C)C(=O)N[C@@H]([C@@H](C)O)C(=O)N1)[C@@H](C)O)C(=O)N[C@@H](CC(C)C)C(=O)N1CCC[C@H]1C(=O)N1CCC[C@H]1C(=O)N[C@H](C(=O)N[C@@H](CC(N)=O)C(=O)N[C@H](C(=O)NCC(=O)N[C@@H](CO)C(=O)N[C@@H](CC(N)=O)C(=O)N[C@H](C(=O)N[C@@H](Cc1ccc(O)cc1)C(N)=O)[C@@H](C)O)C(C)C)[C@@H](C)O)
0.258	0.059	{C18 diacid-γGlu}-HHCNTATCATQRLAEFLHHSSNNFGPILPPTNVGSNTY-NH2 (disulfide 3-8; SMILES CC[C@H](C)[C@H](NC(=O)[C@@H]1CCCN1C(=O)CNC(=O)[C@H](Cc1ccccc1)NC(=O)[C@H](CC(N)=O)NC(=O)[C@H](CC(N)=O)NC(=O)[C@H](CO)NC(=O)[C@H](CO)NC(=O)[C@H](Cc1c[nH]cn1)NC(=O)[C@H](Cc1c[nH]cn1)NC(=O)[C@H](CC(C)C)NC(=O)[C@H](Cc1ccccc1)NC(=O)[C@H](CCC(=O)O)NC(=O)[C@H](C)NC(=O)[C@H](CC(C)C)NC(=O)[C@H](CCCNC(=N)N)NC(=O)[C@H](CCC(N)=O)NC(=O)[C@@H](NC(=O)[C@H](C)NC(=O)[C@@H]1CSSC[C@H](NC(=O)[C@H](Cc2c[nH]cn2)NC(=O)[C@H](Cc2c[nH]cn2)NC(=O)CC[C@H](NC(=O)CCCCCCCCCCCCCCCCC(=O)O)C(=O)O)C(=O)N[C@@H](CC(N)=O)C(=O)N[C@@H]([C@@H](C)O)C(=O)N[C@@H](C)C(=O)N[C@@H]([C@@H](C)O)C(=O)N1)[C@@H](C)O)C(=O)N[C@@H](CC(C)C)C(=O)N1CCC[C@H]1C(=O)N1CCC[C@H]1C(=O)N[C@H](C(=O)N[C@@H](CC(N)=O)C(=O)N[C@H](C(=O)NCC(=O)N[C@@H](CO)C(=O)N[C@@H](CC(N)=O)C(=O)N[C@H](C(=O)N[C@@H](Cc1ccc(O)cc1)C(N)=O)[C@@H](C)O)C(C)C)[C@@H](C)O) [N-alpha-[(S)-4-Carboxy-4-(17-carboxyheptadecanoylamino)butyryl]-His-[His1,Glu14,His17]-pramlintide]
0.169	0.102	{C18 diacid-γGlu}-EKCNTATCATQRLAEFLHHSSNNFGPILPPTNVGSHTY-NH2 (disulfide 3-8; SMILES CC[C@H](C)[C@H](NC(=O)[C@@H]1CCCN1C(=O)CNC(=O)[C@H](Cc1ccccc1)NC(=O)[C@H](CC(N)=O)NC(=O)[C@H](CC(N)=O)NC(=O)[C@H](CO)NC(=O)[C@H](CO)NC(=O)[C@H](Cc1c[nH]cn1)NC(=O)[C@H](Cc1c[nH]cn1)NC(=O)[C@H](CC(C)C)NC(=O)[C@H](Cc1ccccc1)NC(=O)[C@H](CCC(=O)O)NC(=O)[C@H](C)NC(=O)[C@H](CC(C)C)NC(=O)[C@H](CCCNC(=N)N)NC(=O)[C@H](CCC(N)=O)NC(=O)[C@@H](NC(=O)[C@H](C)NC(=O)[C@@H]1CSSC[C@H](NC(=O)[C@H](CCCCN)NC(=O)[C@H](CCC(=O)O)NC(=O)CC[C@H](NC(=O)CCCCCCCCCCCCCCCCC(=O)O)C(=O)O)C(=O)N[C@@H](CC(N)=O)C(=O)N[C@@H]([C@@H](C)O)C(=O)N[C@@H](C)C(=O)N[C@@H]([C@@H](C)O)C(=O)N1)[C@@H](C)O)C(=O)N[C@@H](CC(C)C)C(=O)N1CCC[C@H]1C(=O)N1CCC[C@H]1C(=O)N[C@H](C(=O)N[C@@H](CC(N)=O)C(=O)N[C@H](C(=O)NCC(=O)N[C@@H](CO)C(=O)N[C@@H](Cc1c[nH]cn1)C(=O)N[C@H](C(=O)N[C@@H](Cc1ccc(O)cc1)C(N)=O)[C@@H](C)O)C(C)C)[C@@H](C)O) [N-alpha-[(S)-4-Carboxy-4-(17-carboxyheptadecanoylamino)butyryl]-Glu-[Glu14,His17,His35]-pramlintide]
0.459	0.101	{C20 diacid-γGlu}-KCNTATCATQRLAEFLRHSSNNFGPILPPTNVGSNTY-NH2 (disulfide 2-7; SMILES CC[C@H](C)[C@H](NC(=O)[C@@H]1CCCN1C(=O)CNC(=O)[C@H](Cc1ccccc1)NC(=O)[C@H](CC(N)=O)NC(=O)[C@H](CC(N)=O)NC(=O)[C@H](CO)NC(=O)[C@H](CO)NC(=O)[C@H](Cc1c[nH]cn1)NC(=O)[C@H](CCCNC(=N)N)NC(=O)[C@H](CC(C)C)NC(=O)[C@H](Cc1ccccc1)NC(=O)[C@H](CCC(=O)O)NC(=O)[C@H](C)NC(=O)[C@H](CC(C)C)NC(=O)[C@H](CCCNC(=N)N)NC(=O)[C@H](CCC(N)=O)NC(=O)[C@@H](NC(=O)[C@H](C)NC(=O)[C@@H]1CSSC[C@H](NC(=O)[C@H](CCCCN)NC(=O)CC[C@H](NC(=O)CCCCCCCCCCCCCCCCCCC(=O)O)C(=O)O)C(=O)N[C@@H](CC(N)=O)C(=O)N[C@@H]([C@@H](C)O)C(=O)N[C@@H](C)C(=O)N[C@@H]([C@@H](C)O)C(=O)N1)[C@@H](C)O)C(=O)N[C@@H](CC(C)C)C(=O)N1CCC[C@H]1C(=O)N1CCC[C@H]1C(=O)N[C@H](C(=O)N[C@@H](CC(N)=O)C(=O)N[C@H](C(=O)NCC(=O)N[C@@H](CO)C(=O)N[C@@H](CC(N)=O)C(=O)N[C@H](C(=O)N[C@@H](Cc1ccc(O)cc1)C(N)=O)[C@@H](C)O)C(C)C)[C@@H](C)O) [N-alpha-[(S)-4-Carboxy-4-(19-carboxynonadecanoylamino)butyryl]-[Glu14,Arg17]-pramlintide]
0.6	0.061	{C18 diacid-γGlu}-KCNTATCATQRLAEFLRHSSNNFGPILPPTNVGSNTY-NH2 (disulfide 2-7; SMILES CC[C@H](C)[C@H](NC(=O)[C@@H]1CCCN1C(=O)CNC(=O)[C@H](Cc1ccccc1)NC(=O)[C@H](CC(N)=O)NC(=O)[C@H](CC(N)=O)NC(=O)[C@H](CO)NC(=O)[C@H](CO)NC(=O)[C@H](Cc1c[nH]cn1)NC(=O)[C@H](CCCNC(=N)N)NC(=O)[C@H](CC(C)C)NC(=O)[C@H](Cc1ccccc1)NC(=O)[C@H](CCC(=O)O)NC(=O)[C@H](C)NC(=O)[C@H](CC(C)C)NC(=O)[C@H](CCCNC(=N)N)NC(=O)[C@H](CCC(N)=O)NC(=O)[C@@H](NC(=O)[C@H](C)NC(=O)[C@@H]1CSSC[C@H](NC(=O)[C@H](CCCCN)NC(=O)CC[C@H](NC(=O)CCCCCCCCCCCCCCCCC(=O)O)C(=O)O)C(=O)N[C@@H](CC(N)=O)C(=O)N[C@@H]([C@@H](C)O)C(=O)N[C@@H](C)C(=O)N[C@@H]([C@@H](C)O)C(=O)N1)[C@@H](C)O)C(=O)N[C@@H](CC(C)C)C(=O)N1CCC[C@H]1C(=O)N1CCC[C@H]1C(=O)N[C@H](C(=O)N[C@@H](CC(N)=O)C(=O)N[C@H](C(=O)NCC(=O)N[C@@H](CO)C(=O)N[C@@H](CC(N)=O)C(=O)N[C@H](C(=O)N[C@@H](Cc1ccc(O)cc1)C(N)=O)[C@@H](C)O)C(C)C)[C@@H](C)O) [N-alpha-[(S)-4-Carboxy-4-(17-carboxyheptadecanoylamino)butyryl]-[Glu14,Arg17]-pramlintide]
0.2	0.13	{C20 diacid-γGlu}-KCNTATCATERLAEFLHHSSNNFGPILPPTNVGSNTY-NH2 (disulfide 2-7; SMILES CC[C@H](C)[C@H](NC(=O)[C@@H]1CCCN1C(=O)CNC(=O)[C@H](Cc1ccccc1)NC(=O)[C@H](CC(N)=O)NC(=O)[C@H](CC(N)=O)NC(=O)[C@H](CO)NC(=O)[C@H](CO)NC(=O)[C@H](Cc1c[nH]cn1)NC(=O)[C@H](Cc1c[nH]cn1)NC(=O)[C@H](CC(C)C)NC(=O)[C@H](Cc1ccccc1)NC(=O)[C@H](CCC(=O)O)NC(=O)[C@H](C)NC(=O)[C@H](CC(C)C)NC(=O)[C@H](CCCNC(=N)N)NC(=O)[C@H](CCC(=O)O)NC(=O)[C@@H](NC(=O)[C@H](C)NC(=O)[C@@H]1CSSC[C@H](NC(=O)[C@H](CCCCN)NC(=O)CC[C@H](NC(=O)CCCCCCCCCCCCCCCCCCC(=O)O)C(=O)O)C(=O)N[C@@H](CC(N)=O)C(=O)N[C@@H]([C@@H](C)O)C(=O)N[C@@H](C)C(=O)N[C@@H]([C@@H](C)O)C(=O)N1)[C@@H](C)O)C(=O)N[C@@H](CC(C)C)C(=O)N1CCC[C@H]1C(=O)N1CCC[C@H]1C(=O)N[C@H](C(=O)N[C@@H](CC(N)=O)C(=O)N[C@H](C(=O)NCC(=O)N[C@@H](CO)C(=O)N[C@@H](CC(N)=O)C(=O)N[C@H](C(=O)N[C@@H](Cc1ccc(O)cc1)C(N)=O)[C@@H](C)O)C(C)C)[C@@H](C)O) [N-alpha-[(S)-4-Carboxy-4-(19-carboxynonadecanoylamino)butyryl]-[Glu10,Glu14,His17]-pramlintide]
